Data published in US20200262877A1, “ION CHANNEL-BINDING PEPTIDES AND METHODS OF USE THEREOF” (priority 2017, published 2020).

Legend:
[1] = biological target: T1, 5HT3a (Homo sapiens, UniProt P46098); experiment: Ion channel panel (IonWorks Barracuda): 5HT3a; format: cell-based
T1 construct: host or cells: HEK293 or CHO
T1 sequence (P46098 whole entry, looked up): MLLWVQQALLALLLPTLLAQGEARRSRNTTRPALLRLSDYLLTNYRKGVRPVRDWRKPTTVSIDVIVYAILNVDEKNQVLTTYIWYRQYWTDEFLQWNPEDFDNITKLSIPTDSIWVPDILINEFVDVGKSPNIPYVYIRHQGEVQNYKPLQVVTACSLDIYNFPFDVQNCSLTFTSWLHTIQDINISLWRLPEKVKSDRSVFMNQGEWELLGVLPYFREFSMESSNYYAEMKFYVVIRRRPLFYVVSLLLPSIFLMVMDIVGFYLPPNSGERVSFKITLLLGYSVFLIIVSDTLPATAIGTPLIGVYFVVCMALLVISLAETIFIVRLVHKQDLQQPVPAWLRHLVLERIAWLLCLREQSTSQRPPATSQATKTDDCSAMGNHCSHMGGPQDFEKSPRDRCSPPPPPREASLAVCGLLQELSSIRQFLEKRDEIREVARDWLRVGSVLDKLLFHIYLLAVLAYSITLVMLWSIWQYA
Procedure: (§1) This example describes a method for assaying ion channel activity in cells.
(§2) Peptides were screened in duplicate at final concentrations of 20 μM and 200 nM, as determined by amino acid analysis, and diluted into HEPES buffered physiological saline (HBPS). HEK293 or CHO cells from the American Type Culture Collection (ATCC) were transfected with the appropriate ion channel before use. HEK293 cells were grown in Dulbecco's Modified Eagle Medium/Nutrient Mixture F-12, and CHO cells were cultured in Ham's F-12 media. All cultures were supplemented with 10% fetal bovine serum, 100 U/ml penicillin G, 100 μg/ml streptomycin sulfate, and the appropriate selection antibiotics. Prior to use, cells were washed twice with Hank's Balanced Salt Solution, and treated with Accutase cell detachment solution (Sigma-Aldrich). Cells were then washed. Peptides and controls were incubated with cells for at least five minutes.
(§3) Percent inhibition was defined as: (1-(Ipeptide/Icontrol))×100%).
(§4) Percent values were calculated using the following formula: % activation=(IPeptide/Icontrol)×100%, where IPeptide is the current produced by co-application a peptide with agonist, and Icontrol refers to the current produced by stimulation in control. Control used for each ion channel is the reference compound matched to a particular channel, as illustrated in TABLE 10 below.

[2] = biological target: T2, α3β4 (Homo sapiens, UniProt P30926+P32297); experiment: Ion channel panel (IonWorks Barracuda): α3β4; format: cell-based; conditions: 100% = no change, <100% = inhibition
T2 construct: host or cells: HEK293 or CHO
Procedure: as §1, §2, §3, §4

[3] = biological target: T3, α4β2 (Homo sapiens, UniProt P17787+P43681); experiment: Ion channel panel (IonWorks Barracuda): α4β2; format: cell-based; conditions: 100% = no change, <100% = inhibition
T3 construct: host or cells: HEK293 or CHO
Procedure: as §1, §2, §3, §4

[4] = biological target: T4, Cav2.1 (Homo sapiens, UniProt O00555); experiment: cell-based; conditions: 100% = no change, <100% = inhibition
T4 construct: host or cells: HEK293 or CHO
Procedure: as §1, §2, §3, §4

[5] = biological target: T5, Cav2.2 (Homo sapiens, UniProt Q00975); experiment: cell-based; conditions: 100% = no change, <100% = inhibition
T5 construct: host or cells: HEK293 or CHO
Procedure: as §1, §2, §3, §4

[6] = biological target: T6, Kv2.1 (Homo sapiens, UniProt Q14721); experiment: cell-based; conditions: 100% = no change, <100% = inhibition
T6 construct: host or cells: HEK293 or CHO
Procedure: as §1, §2, §3, §4

[7] = system: GABA; experiment: Ion channel panel (IonWorks Barracuda): GABA; format: cell-based; conditions: 100% = no change, <100% = inhibition
Procedure: as §1, §2, §3, §4

[8] = biological target: Nav1.5 (Homo sapiens, UniProt Q14524); experiment: in vitro; conditions: 100% = no change; for Activity of Nav1.5 with peptide, expressed as a percentage of the reference compound: peptide at 0.2 μM; for Activity of Nav1.5 with peptide (percentage of the reference compound): peptide at 20 μM
Chain of Nav1.5 (Q14524 whole entry): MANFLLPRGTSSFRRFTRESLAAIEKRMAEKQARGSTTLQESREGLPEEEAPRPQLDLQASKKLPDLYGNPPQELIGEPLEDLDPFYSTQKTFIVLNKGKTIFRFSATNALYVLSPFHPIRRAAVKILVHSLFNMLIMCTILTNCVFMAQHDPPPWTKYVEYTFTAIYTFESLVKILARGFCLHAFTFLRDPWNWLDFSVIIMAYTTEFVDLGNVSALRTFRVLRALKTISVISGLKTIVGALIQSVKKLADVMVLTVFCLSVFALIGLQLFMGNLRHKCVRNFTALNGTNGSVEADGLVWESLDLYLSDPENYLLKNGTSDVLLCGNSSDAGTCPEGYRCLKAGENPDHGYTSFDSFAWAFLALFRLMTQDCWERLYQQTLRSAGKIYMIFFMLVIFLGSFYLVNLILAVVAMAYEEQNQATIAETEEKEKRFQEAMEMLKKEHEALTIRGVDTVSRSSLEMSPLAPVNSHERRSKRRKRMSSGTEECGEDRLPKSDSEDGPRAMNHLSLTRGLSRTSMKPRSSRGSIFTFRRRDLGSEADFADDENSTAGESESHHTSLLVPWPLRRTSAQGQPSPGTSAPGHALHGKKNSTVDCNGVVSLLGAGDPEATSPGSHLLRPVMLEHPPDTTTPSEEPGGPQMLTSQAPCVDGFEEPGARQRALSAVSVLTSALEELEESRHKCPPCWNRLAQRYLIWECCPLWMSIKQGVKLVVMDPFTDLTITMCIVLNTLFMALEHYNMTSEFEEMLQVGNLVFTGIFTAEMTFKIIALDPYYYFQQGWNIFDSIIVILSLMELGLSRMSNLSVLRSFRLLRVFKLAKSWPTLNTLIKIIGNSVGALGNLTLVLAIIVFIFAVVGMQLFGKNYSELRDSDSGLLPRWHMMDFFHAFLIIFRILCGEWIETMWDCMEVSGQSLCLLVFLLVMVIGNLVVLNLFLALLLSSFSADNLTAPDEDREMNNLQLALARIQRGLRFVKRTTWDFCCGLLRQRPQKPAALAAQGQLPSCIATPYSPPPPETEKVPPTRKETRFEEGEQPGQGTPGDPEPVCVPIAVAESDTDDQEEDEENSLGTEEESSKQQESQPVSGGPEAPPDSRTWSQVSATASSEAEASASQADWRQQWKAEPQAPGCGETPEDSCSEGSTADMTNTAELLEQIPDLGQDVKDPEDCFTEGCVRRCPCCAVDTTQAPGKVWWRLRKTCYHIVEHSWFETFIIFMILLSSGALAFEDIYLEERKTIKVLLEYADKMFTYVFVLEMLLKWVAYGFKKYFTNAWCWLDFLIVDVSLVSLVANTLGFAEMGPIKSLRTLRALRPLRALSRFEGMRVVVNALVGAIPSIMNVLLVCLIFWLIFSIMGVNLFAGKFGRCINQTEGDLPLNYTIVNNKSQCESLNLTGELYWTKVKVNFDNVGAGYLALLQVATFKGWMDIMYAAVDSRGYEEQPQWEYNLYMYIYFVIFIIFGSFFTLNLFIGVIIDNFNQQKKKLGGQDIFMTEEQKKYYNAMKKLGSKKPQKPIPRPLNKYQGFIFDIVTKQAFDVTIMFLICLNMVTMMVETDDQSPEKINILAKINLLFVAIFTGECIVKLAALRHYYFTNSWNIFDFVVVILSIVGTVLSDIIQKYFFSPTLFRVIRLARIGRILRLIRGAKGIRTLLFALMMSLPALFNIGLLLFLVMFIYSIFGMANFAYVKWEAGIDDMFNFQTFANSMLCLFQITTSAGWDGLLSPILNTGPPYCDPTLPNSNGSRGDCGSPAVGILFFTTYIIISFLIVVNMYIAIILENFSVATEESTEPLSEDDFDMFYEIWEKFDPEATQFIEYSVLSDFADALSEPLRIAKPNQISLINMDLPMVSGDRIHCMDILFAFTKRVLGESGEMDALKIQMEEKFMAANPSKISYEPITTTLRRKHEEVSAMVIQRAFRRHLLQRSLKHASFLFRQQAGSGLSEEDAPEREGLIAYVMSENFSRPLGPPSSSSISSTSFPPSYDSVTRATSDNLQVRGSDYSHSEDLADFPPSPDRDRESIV
Procedure: as §1, §2, §3, §4

[9] = biological target: hERG (Homo sapiens, UniProt Q12809); experiment: in vitro; conditions: 100% = no change, <100% = inhibition
Procedure: as §1, §2, §3, §4

[10] = biological target: T7, Kir2.1 (Homo sapiens, UniProt P63252); experiment: Ion channel panel (IonWorks Barracuda): Kir2.1; format: cell-based; conditions: 100% = no change, <100% = inhibition
T7 construct: host or cells: HEK293 or CHO
Procedure: as §1, §2, §3, §4

[11] = biological target: T8, Kv1.1 (Homo sapiens, UniProt Q09470); experiment: cell-based; format: cell-based; conditions: 100% = no change, <100% = inhibition
T8 construct: host or cells: HEK293 or CHO
Procedure: as §1, §2, §3, §4

[12] = biological target: T9, Kv1.2 (Homo sapiens, UniProt P16389); experiment: cell-based; format: cell-based; conditions: 100% = no change, <100% = inhibition
T9 construct: host or cells: HEK293 or CHO
Procedure: as §1, §2, §3, §4

[13] = biological target: T10, Kv1.3 (Homo sapiens, UniProt P22001); experiment: cell-based; format: cell-based; conditions: 100% = no change, <100% = inhibition
T10 construct: host or cells: HEK293 or CHO
Procedure: as §1, §2, §3, §4

[14] = biological target: T11, Nav1.7 (Homo sapiens, UniProt Q15858); experiment: cell-based; format: cell-based; conditions: 100% = no change; for Activity of Nav1.7 with peptide, expressed as a percentage of the reference compound: peptide at 0.2 μM; for Activity of Nav1.7 with peptide (percentage of the reference compound): peptide at 20 μM
T11 construct: host or cells: HEK293 or CHO
T11 sequence (Q15858 whole entry): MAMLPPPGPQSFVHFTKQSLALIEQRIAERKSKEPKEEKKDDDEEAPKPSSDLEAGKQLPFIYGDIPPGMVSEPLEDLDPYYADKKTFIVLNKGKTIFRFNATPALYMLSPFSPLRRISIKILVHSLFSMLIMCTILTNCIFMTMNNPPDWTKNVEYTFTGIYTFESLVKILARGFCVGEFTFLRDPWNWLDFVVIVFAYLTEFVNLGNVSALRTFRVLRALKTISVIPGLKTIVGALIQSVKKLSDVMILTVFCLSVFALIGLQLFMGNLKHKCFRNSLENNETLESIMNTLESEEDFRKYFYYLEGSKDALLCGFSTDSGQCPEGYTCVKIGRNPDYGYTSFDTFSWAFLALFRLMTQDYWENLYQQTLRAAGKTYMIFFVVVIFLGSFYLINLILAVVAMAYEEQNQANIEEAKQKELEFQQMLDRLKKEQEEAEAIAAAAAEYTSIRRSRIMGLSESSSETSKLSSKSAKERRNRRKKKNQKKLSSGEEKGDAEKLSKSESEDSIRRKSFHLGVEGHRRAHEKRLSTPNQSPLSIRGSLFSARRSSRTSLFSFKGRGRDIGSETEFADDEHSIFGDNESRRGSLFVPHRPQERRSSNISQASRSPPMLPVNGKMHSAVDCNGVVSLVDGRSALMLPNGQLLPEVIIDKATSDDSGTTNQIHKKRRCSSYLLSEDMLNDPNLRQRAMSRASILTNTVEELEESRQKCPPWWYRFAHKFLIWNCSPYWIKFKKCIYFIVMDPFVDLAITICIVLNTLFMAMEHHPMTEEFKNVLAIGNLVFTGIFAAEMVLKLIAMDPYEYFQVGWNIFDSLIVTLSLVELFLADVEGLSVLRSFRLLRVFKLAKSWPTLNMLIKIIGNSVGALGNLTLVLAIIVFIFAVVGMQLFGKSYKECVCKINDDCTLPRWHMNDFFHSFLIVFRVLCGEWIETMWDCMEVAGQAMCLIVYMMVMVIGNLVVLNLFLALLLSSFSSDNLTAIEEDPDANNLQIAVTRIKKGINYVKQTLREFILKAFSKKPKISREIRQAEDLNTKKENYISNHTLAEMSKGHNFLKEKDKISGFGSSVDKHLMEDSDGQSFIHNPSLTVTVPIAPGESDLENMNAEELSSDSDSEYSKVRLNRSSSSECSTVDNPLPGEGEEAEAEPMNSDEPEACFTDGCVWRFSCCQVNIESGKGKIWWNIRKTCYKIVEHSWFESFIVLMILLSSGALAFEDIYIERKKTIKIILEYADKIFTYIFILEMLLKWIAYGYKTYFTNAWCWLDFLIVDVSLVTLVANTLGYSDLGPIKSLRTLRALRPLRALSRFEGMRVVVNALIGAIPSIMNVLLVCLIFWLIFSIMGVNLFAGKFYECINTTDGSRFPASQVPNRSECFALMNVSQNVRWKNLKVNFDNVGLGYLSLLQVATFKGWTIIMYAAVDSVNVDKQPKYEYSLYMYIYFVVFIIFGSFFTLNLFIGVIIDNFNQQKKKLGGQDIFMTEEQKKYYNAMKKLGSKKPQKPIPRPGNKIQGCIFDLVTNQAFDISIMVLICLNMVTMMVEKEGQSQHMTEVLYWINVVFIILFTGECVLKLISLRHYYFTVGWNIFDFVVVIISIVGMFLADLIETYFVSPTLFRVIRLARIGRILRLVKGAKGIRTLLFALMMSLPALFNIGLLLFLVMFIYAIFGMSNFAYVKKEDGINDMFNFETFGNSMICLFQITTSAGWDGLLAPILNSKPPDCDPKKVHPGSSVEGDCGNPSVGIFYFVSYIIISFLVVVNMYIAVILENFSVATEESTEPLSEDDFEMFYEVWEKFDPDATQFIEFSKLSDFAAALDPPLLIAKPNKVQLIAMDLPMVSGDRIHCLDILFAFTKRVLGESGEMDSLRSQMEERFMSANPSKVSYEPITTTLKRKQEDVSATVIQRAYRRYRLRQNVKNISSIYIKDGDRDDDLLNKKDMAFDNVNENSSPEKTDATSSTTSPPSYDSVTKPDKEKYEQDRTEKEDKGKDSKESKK
Procedure: as §1
as §2, with “Peptides were screened in duplicate at final concentrations of 20 μM and 200 nM, as determined by amino acid analysis, and diluted into HEPES buffered physiological saline (HBPS).” left out
as §3, §4

[15] = biological target: T12, NR2A (Homo sapiens, UniProt Q12879); experiment: Ion channel panel (IonWorks Barracuda): NR2A; format: cell-based; conditions: 100% = no change, <100% = inhibition
T12 construct: host or cells: HEK293 or CHO
Procedure: as §1, §2, §3, §4

[16] = biological target: T13, NR2B (Homo sapiens, UniProt Q13224); experiment: Ion channel panel (IonWorks Barracuda): NR2B; format: cell-based; conditions: 100% = no change, <100% = inhibition
T13 construct: host or cells: HEK293 or CHO
Procedure: as §1, §2, §3, §4

[17] = biological target: T14, TRPA1 (Homo sapiens, UniProt O75762); experiment: Ion channel panel (IonWorks Barracuda): TRPA1; format: cell-based; conditions: 100% = no change, <100% = inhibition
T14 construct: host or cells: HEK293 or CHO
T14 sequence (O75762 whole entry): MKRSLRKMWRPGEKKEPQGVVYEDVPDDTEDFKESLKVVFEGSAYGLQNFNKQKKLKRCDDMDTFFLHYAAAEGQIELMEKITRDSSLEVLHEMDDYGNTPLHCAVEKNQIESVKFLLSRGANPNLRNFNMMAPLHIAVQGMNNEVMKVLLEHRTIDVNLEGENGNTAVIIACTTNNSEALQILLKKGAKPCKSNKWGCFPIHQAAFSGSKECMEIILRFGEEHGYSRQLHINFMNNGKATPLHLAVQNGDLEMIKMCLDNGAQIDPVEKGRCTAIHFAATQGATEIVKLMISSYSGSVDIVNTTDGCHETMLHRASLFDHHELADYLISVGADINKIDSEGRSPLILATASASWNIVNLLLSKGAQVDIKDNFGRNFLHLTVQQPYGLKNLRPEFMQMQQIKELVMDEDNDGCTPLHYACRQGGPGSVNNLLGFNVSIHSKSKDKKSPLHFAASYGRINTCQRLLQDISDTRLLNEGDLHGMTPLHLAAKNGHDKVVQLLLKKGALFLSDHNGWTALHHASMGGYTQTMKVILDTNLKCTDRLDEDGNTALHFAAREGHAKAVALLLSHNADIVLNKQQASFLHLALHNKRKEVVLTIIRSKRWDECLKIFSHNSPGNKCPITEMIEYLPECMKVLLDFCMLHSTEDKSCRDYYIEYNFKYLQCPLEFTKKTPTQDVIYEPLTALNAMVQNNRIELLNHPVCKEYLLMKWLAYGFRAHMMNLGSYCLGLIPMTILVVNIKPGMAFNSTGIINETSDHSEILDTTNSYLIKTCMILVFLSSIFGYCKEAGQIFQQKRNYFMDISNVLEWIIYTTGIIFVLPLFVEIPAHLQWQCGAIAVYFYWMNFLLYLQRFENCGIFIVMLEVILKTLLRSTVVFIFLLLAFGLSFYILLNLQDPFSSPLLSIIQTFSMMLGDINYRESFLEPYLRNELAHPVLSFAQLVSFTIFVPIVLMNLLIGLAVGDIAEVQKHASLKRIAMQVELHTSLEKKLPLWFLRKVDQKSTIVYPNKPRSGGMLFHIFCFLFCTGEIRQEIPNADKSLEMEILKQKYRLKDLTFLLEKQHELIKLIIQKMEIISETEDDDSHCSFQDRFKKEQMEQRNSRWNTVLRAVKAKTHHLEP
Procedure: as §1, §2, §3, §4

[18] = biological target: T15, TRPV1 (Homo sapiens, UniProt Q8NER1); experiment: Ion channel panel (IonWorks Barracuda): TRPV1; format: cell-based; conditions: 100% = no change, <100% = inhibition
T15 construct: host or cells: HEK293 or CHO
Procedure: as §1, §2, §3, §4

[19] = first of two Nav1.5 columns (probably TP1)
[20] = second of two Nav1.5 columns (probably TP2)
[21] = first of two Nav1.7 columns (probably TP1)
[22] = second of two Nav1.7 columns (probably TP2)

In the case of “3 (GSSEKDCIKHLQRCRENKDCCSKKCSRRGTNPEKRCR) [compound 3]”, the “Activity of 5HT3a with peptide (percentage of the reference compound)” value [1] is reported as 98%, the “Activity of 5HT3a with peptide, expressed as a percentage of the reference compound” value [1] is reported as 109% and the “Activity of a3b4 with peptide, expressed as a percentage of the reference compound” value ([2]; peptide at 0.2 μM) is reported as 99%. For the same substance, the “Activity of a3b4 with peptide (percentage of the reference compound)” value ([2]; peptide at 20 μM) was 92%, the “Activity of a4b2 with peptide, expressed as a percentage of the reference compound” value ([3]; peptide at 0.2 μM) was 93% and the “Activity of a4b2 with peptide (percentage of the reference compound)” value ([3]; peptide at 20 μM) was 91%. For the same substance, the “Activity of Cav2.1 with peptide, expressed as a percentage of the reference compound” value ([4]; peptide at 0.2 μM) was 102%, the “Activity of Cav2.1 with peptide (percentage of the reference compound)” value ([4]; peptide at 20 μM) was 131% and the “Activity of Cav2.2 with peptide, expressed as a percentage of the reference compound” value ([5]; peptide at 0.2 μM) was 103%. For the same substance, the “Activity of Cav2.2 with peptide (percentage of the reference compound)” value ([5]; peptide at 20 μM) was 110%, the “Activity of Kv2.1 with peptide, expressed as a percentage of the reference compound” value ([6]; peptide at 0.2 μM) was 80% and the “Activity of Kv2.1 with peptide (percentage of the reference compound)” value ([6]; peptide at 20 μM) was 81%. The “Activity of GABA with peptide, expressed as a percentage of the reference compound” value ([7]; peptide at 0.2 μM) was 77%, the “Activity of GABA with peptide (percentage of the reference compound)” value ([7]; peptide at 20 μM) was 111% and the “Activity of Nav1.5 with peptide, expressed as a percentage of the reference compound” value [8, 19] was 113%. For the same substance, the “Activity of Nav1.5 with peptide, expressed as a percentage of the reference compound” value [8, 20] was 111%, the “Activity of Nav1.5 with peptide (percentage of the reference compound)” value [8, 19] was 114% and the “Activity of Nav1.5 with peptide (percentage of the reference compound)” value [8, 20] was 115%. The “Activity of hERG with peptide, expressed as a percentage of the reference compound” value ([9]; peptide at 0.2 μM) was 121%, the “Activity of hERG with peptide (percentage of the reference compound)” value ([9]; peptide at 20 μM) was 81% and the “Activity of Kir2.1 with peptide, expressed as a percentage of the reference compound” value ([10]; peptide at 0.2 μM) was 107%. The “Activity of Kir2.1 with peptide (percentage of the reference compound)” value ([10]; peptide at 20 μM) was 93%, the “Activity of Kv1.1 with peptide, expressed as a percentage of the reference compound” value ([11]; peptide at 0.2 μM) was 99% and the “Activity of Kv1.1 with peptide (percentage of the reference compound)” value ([11]; peptide at 20 μM) was 73%. For the same substance, the “Activity of Kv1.2 with peptide, expressed as a percentage of the reference compound” value ([12]; peptide at 0.2 μM) was 88%, the “Activity of Kv1.2 with peptide (percentage of the reference compound)” value ([12]; peptide at 20 μM) was 45% and the “Activity of Kv1.3 with peptide, expressed as a percentage of the reference compound” value ([13]; peptide at 0.2 μM) was 92%. For the same substance, the “Activity of Kv1.3 with peptide (percentage of the reference compound)” value ([13]; peptide at 20 μM) was 87%, the “Activity of Nav1.7 with peptide, expressed as a percentage of the reference compound” value [14, 21] was 107% and the “Activity of Nav1.7 with peptide, expressed as a percentage of the reference compound” value [14, 22] was 113%. For the same substance, the “Activity of Nav1.7 with peptide (percentage of the reference compound)” value [14, 21] was 90%, the “Activity of Nav1.7 with peptide (percentage of the reference compound)” value [14, 22] was 68% and the “Activity of NR2A with peptide, expressed as a percentage of the reference compound” value ([15]; peptide at 0.2 μM) was 97%. For the same substance, the “Activity of NR2A with peptide (percentage of the reference compound)” value ([15]; peptide at 20 μM) was 100%, the “Activity of NR2B with peptide, expressed as a percentage of the reference compound” value ([16]; peptide at 0.2 μM) was 93% and the “Activity of NR2B with peptide (percentage of the reference compound)” value ([16]; peptide at 20 μM) was 74%. For the same substance, the “Activity of TRPA1 with peptide, expressed as a percentage of the reference compound” value ([17]; peptide at 0.2 μM) was 105%, the “Activity of TRPA1 with peptide (percentage of the reference compound)” value ([17]; peptide at 20 μM) was 117% and the “Activity of TRPV1 with peptide, expressed as a percentage of the reference compound” value ([18]; peptide at 0.2 μM) was 107%. For the same substance, the “Activity of TRPV1 with peptide (percentage of the reference compound)” value ([18]; peptide at 20 μM) was 95%.
